Data as given in patent publication US20190136246A1 (CSIR, published 2019).

T1: BTV-8 VP3 (SEQ ID NO:1) (Bluetongue virus serotype 8, UniProt P12435 1-901)
T1 sequence: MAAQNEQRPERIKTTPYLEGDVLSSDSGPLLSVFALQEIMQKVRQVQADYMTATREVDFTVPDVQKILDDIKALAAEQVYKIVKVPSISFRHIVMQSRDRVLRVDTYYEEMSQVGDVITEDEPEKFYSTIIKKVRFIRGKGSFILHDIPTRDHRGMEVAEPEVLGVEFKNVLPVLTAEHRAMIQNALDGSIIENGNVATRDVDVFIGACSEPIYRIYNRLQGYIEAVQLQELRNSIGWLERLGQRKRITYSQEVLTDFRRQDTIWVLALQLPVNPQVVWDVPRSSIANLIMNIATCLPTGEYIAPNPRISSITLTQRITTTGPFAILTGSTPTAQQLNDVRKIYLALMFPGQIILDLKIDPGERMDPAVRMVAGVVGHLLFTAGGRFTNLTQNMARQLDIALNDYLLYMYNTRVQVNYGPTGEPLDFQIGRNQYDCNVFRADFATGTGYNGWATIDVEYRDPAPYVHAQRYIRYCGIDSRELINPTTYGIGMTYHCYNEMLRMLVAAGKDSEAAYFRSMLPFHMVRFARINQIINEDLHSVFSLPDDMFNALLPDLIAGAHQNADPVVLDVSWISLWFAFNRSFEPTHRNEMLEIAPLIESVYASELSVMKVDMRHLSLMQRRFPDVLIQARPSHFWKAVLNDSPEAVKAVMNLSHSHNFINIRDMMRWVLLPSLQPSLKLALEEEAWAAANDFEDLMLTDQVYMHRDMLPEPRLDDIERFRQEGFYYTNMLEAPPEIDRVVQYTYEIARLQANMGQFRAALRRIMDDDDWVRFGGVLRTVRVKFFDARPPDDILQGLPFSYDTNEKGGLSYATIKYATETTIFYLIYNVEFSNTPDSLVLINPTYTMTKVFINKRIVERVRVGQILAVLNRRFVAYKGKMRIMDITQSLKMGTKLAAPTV

T2: BTV-8 VP7 (SEQ ID NO:6) (Bluetongue virus serotype 8, UniProt P69361 1-349)
T2 sequence: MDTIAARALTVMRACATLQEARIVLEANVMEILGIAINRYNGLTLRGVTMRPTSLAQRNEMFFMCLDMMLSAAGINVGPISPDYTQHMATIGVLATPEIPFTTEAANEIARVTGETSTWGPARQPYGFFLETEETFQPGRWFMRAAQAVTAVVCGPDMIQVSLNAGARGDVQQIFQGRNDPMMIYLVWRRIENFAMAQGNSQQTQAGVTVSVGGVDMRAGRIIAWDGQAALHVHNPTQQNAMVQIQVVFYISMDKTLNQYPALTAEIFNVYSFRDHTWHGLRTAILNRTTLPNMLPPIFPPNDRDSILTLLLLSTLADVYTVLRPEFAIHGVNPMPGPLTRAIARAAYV


How the values were obtained:
BTV-8 VP3 (SEQ ID NO:1) = target: T1, BTV-8 VP3 (SEQ ID NO:1); assay: particle assembly on co-expression in N. benthamiana; iodixanol gradient, TEM
BTV-8 VP7 (SEQ ID NO:6) = target: T2, BTV-8 VP7 (SEQ ID NO:6); assay: CLP assembly on co-expression; sucrose gradient, TEM (FIG. 13)

Row | Binder | binding result (BTV-8 VP3 (SEQ ID NO:1)) | binding result (BTV-8 VP7 (SEQ ID NO:6))
1 | BTV-8 VP7 (SEQ ID NO:5) (other) MDTIAARALTVMRACATLQEARIVLEANVMEILGIAINRYNGLTLRGVTMRPTSLAQRNEMFFMCLDMMLSAAGINVGPISPDYTQHMATIGVLATPEIPFTTEAANEIARVTGETSTWGPARQPYGFFLETEETFQPGRWFMRAAQAVTAVVCGPDMIQVSLNAGARGDVQQIFQGRNDPMMIYLVWRRIENFAMAQGNSQQTQAGVTVSVGGVDMRAGRIIAWDGQAALHVHNPTQQNAMVQIQVVFYISMDKTLNQYPALTAEIFNVYSFRDHTWHGLRTAILNRTTLPNMLPPIFPPNDRDSILTLLLLSTLADVYTVLRPEFAIHGVNPMPGPLTRAIARAAYV | binds | 
2 | BTV-8 VP3 (SEQ ID NO:2) (other) MAAQNEQRPERIKTTPYLEGDVLSSDSGPLLSVFALQEIMQKVRQVQADYMTATREVDFTVPDVQKILDDIKALAAEQVYKIVKVPSISFRHIVMQSRDRVLRVDTYYEEMSQVGDVITEDEPEKFYSTIIKKVRFIRGKGSFILHDIPTRDHRGMEVAEPEVLGVEFKNVLPVLTAEHRAMIQNALDGSIIENGNVATRDVDVFIGACSEPIYRIYNRLQGYIEAVQLQELRNSIGWLERLGQRKRITYSQEVLTDFRRQDTIWVLALQLPVNPQVVWDVPRSSIANLIMNIATCLPTGEYIAPNPRISSITLTQRITTTGPFAILTGSTPTAQQLNDVRKIYLALMFPGQIILDLKIDPGERMDPAVRMVAGVVGHLLFTAGGRFTNLTQNMARQLDIALNDYLLYMYNTRVQVNYGPTGEPLDFQIGRNQYDCNVFRADFATGTGYNGWATIDVEYRDPAPYVHAQRYIRYCGIDSRELINPTTYGIGMTYHCYNEMLRMLVAAGKDSEAAYFRSMLPFHMVRFARINQIINEDLHSVFSLPDDVFNALLPDLIAGAHQNADPVVLDVSWISLWFAFNRSFEPTHRNEMLEIAPLIESVYASELSVMKVDMRHLSLMQRRFPDVLIQARPSHFWKAVLNDSPEAVKAVMNLSHSHNFINIRDMMRWVLLPSLQPSLKLALEEEAWAAANDFEDLMLTDQVYMHRDMLPEPRLDDIERFRQEGFYYTNMLEAPPEIDRVVQYTYEIARLQANMGQFRAALRRIMDDDDWVRFGGVLRTVRVKFFDARPPDDILQGLPFSYDTNEKGGLSYATIKYATETTIFYLIYNVEFSNTPDSLVLINPTYTMTKVFINKRIVERVRVGQILAVLNRRFVAYKGKMRIMDITQSLKMGTKLAAPTV |  | binds
